Our source for the response values is PMC8096101.

The assay has as its target SMO657-nanoluc (UniProt P56726). Description: BRET. Conditions: HEK293 cells; SMO657-nanoluc donor, YFP-tagged PKA-C acceptor; BRET ratio (YFP/nanoluc), background-subtracted; parent: est. 2.4; read off a plot. (In general: BRET reads energy transfer from a luciferase to a nearby fluorophore.)
UniProt P56726, sequence (P56726 65-657): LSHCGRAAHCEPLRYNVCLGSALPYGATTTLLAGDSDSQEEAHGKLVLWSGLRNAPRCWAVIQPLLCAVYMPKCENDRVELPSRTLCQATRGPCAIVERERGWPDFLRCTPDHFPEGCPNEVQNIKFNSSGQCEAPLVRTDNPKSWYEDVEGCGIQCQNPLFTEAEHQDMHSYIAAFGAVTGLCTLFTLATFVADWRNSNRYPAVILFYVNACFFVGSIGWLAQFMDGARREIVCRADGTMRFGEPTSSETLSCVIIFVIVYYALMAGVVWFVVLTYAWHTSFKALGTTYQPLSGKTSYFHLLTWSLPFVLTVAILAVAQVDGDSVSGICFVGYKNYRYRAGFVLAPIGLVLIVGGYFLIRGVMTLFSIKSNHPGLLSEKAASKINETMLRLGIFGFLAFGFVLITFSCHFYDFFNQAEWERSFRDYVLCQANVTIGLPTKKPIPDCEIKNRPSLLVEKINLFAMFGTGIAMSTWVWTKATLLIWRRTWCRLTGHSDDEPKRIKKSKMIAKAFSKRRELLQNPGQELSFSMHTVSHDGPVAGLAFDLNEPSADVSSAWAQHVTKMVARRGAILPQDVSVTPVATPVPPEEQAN

For “PKA-C-YFP (PKA catalytic subunit alpha, carboxyl-terminally YFP-tagged) (from UniProt P05132) H87Q; W196R”, the response came out at 2.5 BRET.
